According to article doi:10.1101/2020.10.26.352583 (bioRxiv, 2020):

Target: the molecule itself
Assay: ITC

B1: HDP1 DNA-binding domain (HDP1-DBD), aa2991-3078 (domain or fragment, P. falciparum, UniProt A0A2I0C2C6 2991-3078, looked up)
chain: SEVQVSNINTPSSYNISARRRRRIGNNGPPSAEELNRLLNIQHLTIPEIATIYGVHRTTIARWCNIRNITSNSMNNSPGKRRKNEDNK
  binding result: binds
